Article PMC12485088

Legend:
[1] = molecular target: full-length human CXCR4 with a C-terminal Flag-tag (human) (UniProt P61073); assay: cryo-EM structure
[2] = molecular target: T1, full-length human CXCR4 with a C-terminal Flag-tag (human), P61073; assay: native gel or EMSA; details: remark: other sources report otherwise
T1 chain: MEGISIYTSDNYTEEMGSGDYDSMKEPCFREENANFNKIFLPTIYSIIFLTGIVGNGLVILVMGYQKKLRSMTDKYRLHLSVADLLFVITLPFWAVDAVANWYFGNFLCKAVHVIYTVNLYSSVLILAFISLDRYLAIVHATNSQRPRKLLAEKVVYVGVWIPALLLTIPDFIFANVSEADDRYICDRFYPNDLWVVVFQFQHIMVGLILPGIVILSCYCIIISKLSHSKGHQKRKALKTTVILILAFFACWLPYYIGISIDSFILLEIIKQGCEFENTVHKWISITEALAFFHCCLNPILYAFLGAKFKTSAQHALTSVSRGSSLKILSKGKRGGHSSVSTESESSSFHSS

[3] = molecular target: T1, full-length human CXCR4 with a …; assay: cryo-EM structure; details: remark: other sources report otherwise

Row | Molecule | stoichiometry N (gp120 per CXCR4 tetramer) [1] | stoichiometry N (protomers in the oligomer (main peak)) [2] | stoichiometry N (protomers in the oligomer) [3]
1 | gp120^HIV-2-CD4 complex (from UniProt P01730 26-388) | 2 | – | –
2 | full-length human CXCR4 with a C-terminal Flag-tag, P61073 1-352 (receptor) MEGISIYTSDNYTEEMGSGDYDSMKEPCFREENANFNKIFLPTIYSIIFLTGIVGNGLVILVMGYQKKLRSMTDKYRLHLSVADLLFVITLPFWAVDAVANWYFGNFLCKAVHVIYTVNLYSSVLILAFISLDRYLAIVHATNSQRPRKLLAEKVVYVGVWIPALLLTIPDFIFANVSEADDRYICDRFYPNDLWVVVFQFQHIMVGLILPGIVILSCYCIIISKLSHSKGHQKRKALKTTVILILAFFACWLPYYIGISIDSFILLEIIKQGCEFENTVHKWISITEALAFFHCCLNPILYAFLGAKFKTSAQHALTSVSRGSSLKILSKGKRGGHSSVSTESESSSFHSS | – | 4 | 4
